Patent US8088387B2, “Method of targeting specific cell populations using cell-binding agent maytansinoid conjugates linked via a non-cleavable linker, said conjugates, and methods of making said conjugates” (Immunogen Inc., priority 2003, dated 2012)

Legend:
COLO 205 cells = assay: indirect FACS binding assay on COLO 205 cells; design: species or system human; settings: 5×10^3 cells per well, three hour primary incubation on ice
Protocol: The inventors carried out binding and cytotoxicity studies on the huC242-non-S-containing non-cleavable linker-DM1 conjugate. First, the binding affinities of huC242 antibody, huC242-SMNP-DM3, and huC242-non-S-containing non-cleavable linker-DM1 to COLO 205 cells were compared. 5×10^3 cells per well were used, with a three hour primary incubation on ice. The huC242-non-S-containing non-cleavable linker-DM1 conjugate had about a two-fold higher apparent dissociation constant than free antibody (see FIG. 23).

SKBR3 cells = assay: continuous exposure clonogenic assay, antigen-positive cells; assay type: cell-based, human
From the text: (§1) Cell-binding agent maytansinoid conjugates of the invention can be evaluated for their ability to suppress proliferation of various cell lines in vitro. For example, cell lines such as the human colon carcinoma line COLO205, the human melanoma cell line A375, the human myeloid leukemia cell line HL60, the human breast carcinoma line SKBR3, or the human epidermoid carcinoma cell line KB can be used for the assessment of cytotoxicity of these conjugates. Cells to be evaluated can be exposed to the compounds for 24 hours and the surviving fractions of cells measured in direct assays by known methods. (See, e.g. Goldmacher et al., 135 J. Immunol. 3648-3651 (1985), and Goldmacher et al., 102 J. Cell Biol. 1312-1319 (1986).) IC50 values can then be calculated from the results of the assays.
(§2) The in vitro cytotoxicity and specificity of the huC242-SMCC-DM1 conjugate were evaluated using a continuous exposure clonogenic assay.

A375 cells = assay: continuous exposure clonogenic assay, antigen-negative cells; assay type: cell-based, human
From the text: as §1, §2

[1] = in vitro clonogenic / indirect cytotoxicity assays, cell line not given; assay type: cell-based; settings: clonogenic (FIG. 6A-C) and indirect cytotoxicity assays (FIG. 7)
From the text: as §1

[2] = system: COLO 205 colon tumor xenografts; assay: COLO 205 colon tumor xenografts in SCID mice; assay type: in vivo
Protocol: (§3) Antibody conjugates with DM1 using the SMCC linker show anti-tumor efficacy against human tumor xenografts in mice (FIGS. 10A-C). […] In this experiment, one group of five animals bearing established subcutaneous tumors was treated with huC242-SMCC-DM1 at a dose of 150 μg/kg of conjugated DM1. Tumor sizes were measured periodically and graphed vs. time after tumor inoculation. […] In this experiment, three groups of five animals each bearing established subcutaneous SNU tumors were treated with huC242-SMCC-DM1 at doses of 15 μg/kg, 30 μg/kg, and 60 μg/kg of conjugated DM1, respectively. Tumor sizes were measured periodically and graphed vs. time after tumor inoculation.

[3] = system: SNU16 human gastric tumor xenografts; assay: SNU16 human gastric tumor xenografts in SCID mice; assay type: in vivo
Protocol: as §3

[4] = plasma clearance of conjugates; assay type: in vivo
From the text: This is in sharp contrast to plasma clearance of conjugates prepared with relatively labile disulfide bonds such as huC242-SPP-DM1. […] The non-cleavable SMCC linkage is therefore much more resistant to maytansinoid-linker cleavage activities present in vivo than the SPP-DM1 conjugate. […] This increased exposure could have substantial impact on drug efficacy in some cases.

[5] = acute toxicity test, single intravenous dose; assay type: in vivo, female CD-1 mice; settings: single intravenous dose
Protocol: Maytansinoid conjugates prepared with non-cleavable linkers such as SMCC show an unexpected increased tolerability in mice compared with conjugates prepared with cleavable disulfide linkers. An acute toxicity test with a single intravenous dose was carried out in female CD-1 mice. A comparison of the tolerability of a huC242-SMCC-DM1 conjugate (non-cleavable) with huC242 conjugates prepared with linkers containing cleavable disulfide bonds was conducted by monitoring the death of mice (FIGS. 12A and B) and signs of toxicity (FIGS. 12C and D) over a series of four escalating doses of each conjugate. The maximum tolerated dose (MTD) for the SMCC-DM1 conjugate was greater than the highest dose tested (150 mg/kg) while the MTD for the disulfide-linked conjugate SPP-DM1 was in the range of 45-90 mg/kg.

COLO205 cells = assay: cell cycle arrest by flow cytometry; assay type: cell-based, human; settings: 30 hours post-treatment
Protocol: Maytansinoid conjugates are thought to impart their cell destroying activity through the inhibition of microtubule polymerization. This inhibition of microtubule polymerization leads to an arrest of the cell cycle principally at G2/M. The antigen-dependent arrest of cells at G2/M by antibody-maytansinoid conjugates can be monitored by flow cytometry analysis (FIG. 13). Treatment of COLO205 cells with huC242-SPP-DM1 or huC242-SMCC-DM1 conjugate results in a complete G2/M arrest by 6-10 hours. […] The difference in the durability of the activity of these two conjugates is also reflected in percentage of dead cells at the 30 hour time point, as judged by a dye exclusion assay using trypan blue.

COLO 205 cell line = assay: cell destroying activity, antigen-positive cells (bystander study); assay type: cell-based, human; settings: COLO 205 cultured separately
From the text: (§4) An additional aspect of conjugates prepared with non-cleavable linkers compared to conjugates that have cleavable disulfide linkers is the absence of activity toward antigen-negative cells when in close proximity to antigen-positive cells, termed here the bystander effect. That is, the conjugates prepared with non-cleavable linkers have minimal bystander activity. […] This minimal bystander activity of the non-cleavable conjugate, as measured in this in vitro assay, may contribute to the increased tolerability of conjugate with non-cleavable linkers observed in acute toxicity studies.

Namalwa cells = assay: cell destroying activity, antigen-negative cells (bystander study); assay type: cell-based
From the text: as §4

[6] = Pharmacokinetic Studies of huC242-SPP-DM1 and huC242-SCC-DM1 conjugates inCD-1 Mice Plasma clearance curves and Pharmacokinetic parameters
From the text: Table printed on a drawing sheet, FIG. 11
Title: Pharmacokinetic Studies of huC242-SPP-DM1 and huC242-SCC-DM1 conjugates inCD-1 Mice Plasma clearance curves and Pharmacokinetic parameters
First reader's note: Rows without -DM1 (huC242-SMCC, huC242-SPP) appear to be the antibody component of the same conjugates, as in the plot legend; study in CD-1 mice.

[7] = 150 μg/kg of conjugated DM1, of five animals

B1: huC242-SMCC-DM1: huC242 antibody linked to maytansinoid DM1 via the non-cleavable linker SMCC (conjugate, chains of the INN, looked up)
VH: QVQLVQSGAEVKKPGETVKISCKASDYTFTYYGMNWVKQAPGQGLKWMGWIDTTTGEPTYAQKFQGRIAFSLETSASTAYLQIKSLKSEDTATYFCARRGPYNWYFDVWGQGTTVTVSS
VL: DIVMTQSPLSVPVTPGEPVSISCRSSKSLLHSNGNTYLYWFLQRPGQSPQLLIYRMSNLVSGVPDRFSGSGSGTAFTLRISRVEAEDVGVYYCLQHLEYPFTFGPGTKLELK
modifications: DM1 via SMCC linker
- Kd (COLO 205 cells): 0.552 nM
- IC50 (SKBR3 cells): 0.0035 nM
- fold less sensitive than SKBR3 cells (A375 cells; antigen negative A375 vs antigen positive SKBR3): about 800 fold
- IC50 (A375 cells; antigen-negative A375 cells, continuous exposure clonogenic assay): > 3 nM
- potency compared to conjugates prepared with disulfide-containing linkers [1]: equal or greater potency
- tumor response ([2]; 150 μg/kg of conjugated DM1, five animals, established subcutaneous tumors): All five treated animals had a complete remission
- animals that relapsed after complete remission [2, 7]: three
- animals tumor-free until termination of the experiment [2, 7]: two
- effect on mouse body weight ([2]; at conjugate doses with anti-tumor activity): no effect on mouse body weight
- time some mice remained free of detectable tumors post-treatment ([2]; sentence citing FIG. 10B, text prints COLO 205): over 2 months
- tumor response (sentence citing FIG. 10B) ([2]; text prints COLO 205 colon carcinoma xenografts): complete regression of tumors
- antitumor effect ([3]; 15, 30 and 60 μg/kg of conjugated DM1, established subcutaneous SNU tumors): dose-dependent antitumor effect
- effect on mouse body weight ([3]; at active conjugate concentration): no effect on mouse body weight
- increase in overall maytansinoid exposure (AUC) compared to SPP-DM1 conjugates ([4]; area under the curve): ~5 fold
- half-life for clearance ([4]; plasma, conjugate, FIG. 11): approximately 320 hours
- survival / lethal toxicity ([5]; at 150 mg/kg): all mice in the SMCC-DM1 treated group survived
- maximum tolerated dose (MTD) ([5]; female CD-1 mice): > 150 mg/kg
- durability of cell cycle arrest (COLO205 cells): do not escape from the cell cycle block
- cell destroying activity (COLO 205 cell line): potent cell destroying activity
- cell destroying activity (Namalwa cells; Namalwa cultured separately): no activity
- bystander cell destroying activity toward Namalwa cells (Namalwa cells; co-cultures of COLO 205 and Namalwa cells): No cell destroying activity
- AUC | [6]: 40374.2 µg·h/mL
- CL | [6]: 7.2 mL/day/kg
- Vss | [6]: 0.1125 L/kg
- t1/2 | hour [6]: 13.26 days
